Measurements: IntAct's records for PubMed 31515488

B1: STAM-binding protein (Homo sapiens), O95630 (parent)
chain: MSDHGDVSLPPEDRVRALSQLGSAVEVNEDIPPRRYFRSGVEIIRMASIYSEEGNIEHAFILYNKYITLFIEKLPKHRDYKSAVIPEKKDTVKKLKEIAFPKAEELKAELLKRYTKEYTEYNEEKKKEAEELARNMAIQQELEKEKQRVAQQKQQQLEQEQFHAFEEMIRNQELEKERLKIVQEFGKVDPGLGGPLVPDLEKPSLDVFPTLTVSSIQPSDCHTTVRPAKPPVVDRSLKPGALSNSESIPTIDGLRHVVVPGRLCPQFLQLASANTARGVETCGILCGKLMRNEFTITHVLIPKQSAGSDYCNTENEEELFLIQDQQGLITLGWIHTHPTQTAFLSSVDLHTHCSYQMMLPESVAIVCSPKFQETGFFKLTDHGLEEISSCRQKGFHPHSKDPPLFCSCSHVTVVDRAVTITDLR
B2: Protein ZNRD2 (Homo sapiens), O60232 (parent)
chain: MALNGAEVDDFSWEPPTEAETKVLQARRERQDRISRLMGDYLLRGYRMLGETCADCGTILLQDKQRKIYCVACQELDSDVDKDNPALNAQAALSQAREHQLASASELPLGSRPAPQPPVPRPEHCEGAAAGLKAAQGPPAPAVPPNTDVMACTQTALLQKLTWASAELGSSTSLETSIQLCGLIRACAEALRSLQQLQH
partner: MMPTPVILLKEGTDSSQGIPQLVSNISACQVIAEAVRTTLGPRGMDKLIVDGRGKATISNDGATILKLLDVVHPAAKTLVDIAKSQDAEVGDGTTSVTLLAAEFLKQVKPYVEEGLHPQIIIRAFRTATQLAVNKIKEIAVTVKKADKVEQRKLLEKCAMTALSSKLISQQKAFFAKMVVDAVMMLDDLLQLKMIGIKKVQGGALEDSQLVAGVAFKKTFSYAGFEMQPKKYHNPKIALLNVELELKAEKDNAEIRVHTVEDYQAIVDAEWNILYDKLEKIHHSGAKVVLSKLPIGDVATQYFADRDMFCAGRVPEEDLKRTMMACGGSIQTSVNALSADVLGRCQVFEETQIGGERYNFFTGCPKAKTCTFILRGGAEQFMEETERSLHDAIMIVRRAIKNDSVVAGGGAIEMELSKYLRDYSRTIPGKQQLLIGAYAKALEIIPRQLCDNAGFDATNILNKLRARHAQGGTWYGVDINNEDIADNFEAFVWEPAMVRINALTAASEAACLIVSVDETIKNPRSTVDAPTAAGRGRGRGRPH
B3: Microtubule-associated tumor suppressor candidate 2 (Homo sapiens), Q5JR59-3 (parent)
chain: MGHCCCKPYNCLQCLDKTNESALVKEKELSIELANIRDEVAFHTAKCEKLQKEKEELERRFEDEVKRLGWQQQAELQELEERLQLQFEAEMARLQEEHGDQLLSIRCQHQEQVEDLTASHDAALLEMENNHTVAITILQDDHDHKVQELMSTHELEKKELEENFEKLRLSLQDQVDTLTFQSQSLRDRARRFEEALRKNTEEQLEIALAPYQHLEEDMKSLKQVLEMKNQQIHEQEKKILELEKLAEKNIILEEKIQVLQQQNEDLKARIDQNTVVTRQLSEENANLQEYVEKETQEKKRLSRTNEELLWKLQTGDPTSPIKLSPTSPVYRGSSSGPSSPARVSTTPR
partner: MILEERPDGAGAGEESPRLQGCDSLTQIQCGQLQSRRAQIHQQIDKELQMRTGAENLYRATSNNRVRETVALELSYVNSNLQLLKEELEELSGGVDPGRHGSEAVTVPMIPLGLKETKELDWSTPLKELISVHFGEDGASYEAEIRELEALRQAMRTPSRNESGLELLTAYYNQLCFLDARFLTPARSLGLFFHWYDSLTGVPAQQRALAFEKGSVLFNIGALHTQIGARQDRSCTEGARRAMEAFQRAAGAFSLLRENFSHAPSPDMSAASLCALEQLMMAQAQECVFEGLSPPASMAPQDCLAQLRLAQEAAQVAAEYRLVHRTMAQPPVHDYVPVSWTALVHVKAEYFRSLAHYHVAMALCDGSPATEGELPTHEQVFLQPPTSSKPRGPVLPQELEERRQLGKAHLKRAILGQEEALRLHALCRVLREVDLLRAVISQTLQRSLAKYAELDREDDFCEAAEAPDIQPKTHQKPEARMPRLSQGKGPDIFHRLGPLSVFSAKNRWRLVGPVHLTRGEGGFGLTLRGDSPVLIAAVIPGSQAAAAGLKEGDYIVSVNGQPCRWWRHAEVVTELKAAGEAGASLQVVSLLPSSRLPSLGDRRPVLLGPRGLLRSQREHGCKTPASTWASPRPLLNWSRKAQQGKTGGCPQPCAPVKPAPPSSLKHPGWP
B4: Amyloid beta A4 precursor protein-binding family B member 1-interacting protein (Homo sapiens), Q7Z5R6-2 (parent)
chain: MGESSEDIDQMFSTLLGEMDLLTQSLGVDTLPPPDPNPPRAEFNYSVGFKDLNESLNALEDQDLDALMADLVADISEAEQRTIQAQKESLQNQHHSASLQASIFSGAASLGYGTNVAATGISQYEDDLPPPPADPVLDLPLPPPPPEPLSQVSMWDQRWQDHQPLLPITDVP
B5: Isoform 1 of DNA mismatch repair protein Mlh1 (Homo sapiens), P40692-1 (parent)
chain: MSFVAGVIRRLDETVVNRIAAGEVIQRPANAIKEMIENCLDAKSTSIQVIVKEGGLKLIQIQDNGTGIRKEDLDIVCERFTTSKLQSFEDLASISTYGFRGEALASISHVAHVTITTKTADGKCAYRASYSDGKLKAPPKPCAGNQGTQITVEDLFYNIATRRKALKNPSEEYGKILEVVGRYSVHNAGISFSVKKQGETVADVRTLPNASTVDNIRSIFGNAVSRELIEIGCEDKTLAFKMNGYISNANYSVKKCIFLLFINHRLVESTSLRKAIETVYAAYLPKNTHPFLYLSLEISPQNVDVNVHPTKHEVHFLHEESILERVQQHIESKLLGSNSSRMYFTQTLLPGLAGPSGEMVKSTTSLTSSSTSGSSDKVYAHQMVRTDSREQKLDAFLQPLSKPLSSQPQAIVTEDKTDISSGRARQQDEEMLELPAPAEVAAKNQSLEGDTTKGTSEMSEKRGPTSSNPRKRHREDSDVEMVEDDSRKEMTAACTPRRRIINLTSVLSLQEEINEQGHEVLREMLHNHSFVGCVNPQWALAQHQTKLYLLNTTKLSEELFYQILIYDFANFGVLRLSEPAPLFDLAMLALDSPESGWTEEDGPKEGLAEYIVEFLKKKAEMLADYFSLEIDEEGNLIGLPLLIDNYVPPLEGLPIFILRLATEVNWDEEKECFESLSKECAMFYSIRKQYISEESTLSGQQSEVPGSIPNSWKWTVEHIVYKALRSHILPPKHFTEDGNILQLANLPDLYKVFERC

Variants of: B1
Conditions: with grb2_human GRB2, P62993

| effect of a mutation on the interaction | Variant |
| --- | --- |
| disrupting interaction strength | E167K |
| with no effect | R255H |

Variants of: B1
Conditions: with stam2_human STAM2, O75886

| effect of a mutation on the interaction | Variant |
| --- | --- |
| with no effect | R255H |

Variants of: B2
Conditions: with tcph_human CCT7, Q99832

| effect of a mutation on the interaction | Variant |
| --- | --- |
| with no effect | T21M |

Variants of: B3
Conditions: with rhpn1_human RHPN1, Q8TCX5

| effect of a mutation on the interaction | Variant |
| --- | --- |
| with no effect | A89V |

Variants of: B4
Conditions: with dpy30_human DPY30, Q9C005

| effect of a mutation on the interaction | Variant |
| --- | --- |
| with no effect | D134N |

Variants of: B5
Conditions: with msh3_human MSH3, P20585

| effect of a mutation on the interaction | Variant |
| --- | --- |
| with no effect | R69K |

Variants of: B5
Conditions: with ima1_human KPNA2, P52292

| effect of a mutation on the interaction | Variant |
| --- | --- |
| with no effect | R69K |

Variants of: B5
Conditions: with psa1_human PSMA1, P25786

| effect of a mutation on the interaction | Variant |
| --- | --- |
| with no effect | R69K |

Variants of: B5
Conditions: with msh3_human MSH3, P20585
Remark: another data set of the same source

| effect of a mutation on the interaction | Variant |
| --- | --- |
| with no effect | S106N |
| with no effect | V213M |
| disrupting interaction strength | V326A |
| with no effect | V384D |
| with no effect | S406N |

Variants of: B5
Conditions: with ima1_human KPNA2, P52292
Remark: another data set of the same source

| effect of a mutation on the interaction | Variant |
| --- | --- |
| with no effect | S106N |
| with no effect | V213M |
| disrupting interaction strength | V326A |
| with no effect | V384D |
| with no effect | S406N |

Variants of: B5
Conditions: with psa1_human PSMA1, P25786
Remark: another data set of the same source

| effect of a mutation on the interaction | Variant |
| --- | --- |
| with no effect | S106N |
| with no effect | V213M |
| disrupting interaction strength | V326A |
| with no effect | V384D |
| with no effect | S406N |
